# Results from patent US20020009436A1, “Methods and compositions for inhibiting adhesion by microorganisms” (priority 1999, published 2002).
# B1: asparaginase: enzyme that catalyzes hydrolysis of the side chain amide group of asparagine to a carboxyl group; E. coli asparaginase (protein, UniProt P00805 23-348, looked up)
# L-asparaginase 2: LPNITILATGGTIAGGGDSATKSNYTVGKVGVENLVNAVPQLKDIANVKGEQVVNIGSQDMNDNVWLTLAKKINTDCDKTDGFVITHGTDTMEETAYFLDLTVKCDKPVVMVGAMRPSTSMSADGPFNLYNAVVTAADKASANRGVLVVMNDTVLDGRDVTKTNTTDVATFKSVNYGPLGYIHNGKIDYQRTPARKHTSDTPFDVSKLNELPKVGIVYNYANASDLPAKALVDAGYDGIVSAGVGNGNLYKSVFDTLATAAKTGTAVVRSSRVPTGATTQDAEVDDAKYGFVASGTLNPQKARVLLQLALTQTKDPQQIQQIFNQY
# Legend:
# S. aureus = assay: Fibronectin binding assay, S. aureus; assay type: cell-based; settings: polyphenol oxidase 80 U/ml, asparaginase 20 U/ml
# Experimental: (§1) Wells were filled with human serum fibronectin (50 μg/ml) diluted in carbonate buffer (50 mM Na2CO3—NaHCO3, pH 9.5 overnight). Controls were coated with 1% BSA. The wells were washed three times with PBS and incubated with PBS-Tween (0.5% Tween 20 and 0.05% NaN3) 1 h at 37° C. After attachment, the wells were washed three times with PBS-Tween and allowed to dry. Subsequent assays were as described hereinabove.
# S. pyogenes [1] = assay: Fibronectin binding assay, S. pyogenes; assay type: cell-based; settings: polyphenol oxidase 80 U/ml, asparaginase 20 U/ml
# Experimental: as §1
# [2] = test system: S. sobrinus glucosyltransferase; assay: Purified S. sobrinus glucosyltransferase treated with asparaginase; assay type: biochemical
# Experimental: Glucosyltransferase activity was detected as described in the art, with some modifications described hereinbelow. Protein samples were mixed with electrophoresis sample buffer and incubated for 1 to 4 h at 37° C. before the gel was run. Nonfixed gels were incubated in 50 mM sodium acetate (pH 5.5) containing 1% vol/vol Triton X-100, 2 % (wt/vol) sucrose, and 0.07% (wt/vol) NaN3 at 37° C. for 24 h. Gels were also incubated in the same buffer with glucan T2000 (2 to 4 mg/ml) or fluorescein isothiocyanate-conjugated glucan T-10 (2 mg/ml) to detect both glucosyltransferases and glucan binding proteins (GBPs). After incubation, the gels were fixed for 30 min in 75% ethanol and rocked on a shaker for 30 min with 0.7% periodic acid in 5% acetic acid. The gels were then shaken for 1 h in 0.2% (wt/vol) sodium metabisulfite in 5% acetic acid. After two additional treatments in sodium metabisulfate and acetic acid, the gels were placed in Schiff's reagent for 0.5 to 1 h. Finally the gels were washed extensively in 45% methanol-45% acetic acid-10% H2O for destaining. In some experiments, purified protein was treated with 100 μg/ml polyphenol oxidase for 1 h, or with asparaginase, before loading on the gel.
# S. pyogenes [3] = assay: Adhesion of S. pyogenes to human buccal cells (light microscopy counts); assay type: cell-based, Streptococcus pyogenes
# Experimental: Streptococcus pyogenes strains were grown and pure cultures isolated on blood agar plates at 37° C. Each were subsequently inoculated into brain heart infusion (BHI) nutrient broth at 37° C. for continued growth.
# The cells of each S. pyogenes strains were then washed with phosphate buffer (pH 7) three times. The optical density (OD) of each stain was measured using a spectrophotometer, and adjusted to 0.8. One ml of each strain was treated with polyphenol oxidase or asparaginase. The controls and enzyme-supplemental cells were incubated for ninety minutes at 37° C. Each were washed three times for ten minutes at 15,000 rpm, and recollected in 0.9 ml phosphate buffer.
# Human buccal cells were collected and cleaned in phosphate buffer. The buccal cells and S. pyogenes were combined in a ratio of 3:1 respectively, for each strain and allowed to incubate 30 min. Buccal cells were removed by centrifugation (500×g) and washed three times to reduce streptococcal background. The buccal cell-streptococcal complexes were then smeared on slides. The resulting slides were stained using the Gram method, and viewed under the 100× oil immersion lens. The number of S. pyogenes for each strain was counted for at least 50 buccal cells.
# P. gingivalis = assay: Hemagglutination assay of periodontopathogens, P. gingivalis; assay type: cell-based, Porphyromonas gingivalis; set-up: key: + Hemagglutination; − No hemagglutination; settings: sheep blood, polyphenol oxidase 90 U/ml or asparaginase 20 U/ml, 90 min
# Experimental: The hemagglutinations were carried out in 96 microwell (Nunc) plates in which 50 μl of 1% suspension of sheep blood and 50 μl of serially diluted cells suspension in phosphate buffered (10 mM Na2HPO4, 10 mM KH2PO4, 150 mM NaCl, 3 mM KCl) were added. The cells were adjusted at 1.4 OD at 540 nm. All the strains were treated in NaCl-free buffer with polyphenol oxidase (90 U/ml) or asparaginase (20 U/ml) for 90 min at 37° C. before hemagglutination.
# S. pyogenes [4] = assay: Adhesion of S. pyogenes to buccal epithelial cells (coaggregation slides); assay type: cell-based, Streptococcus pyogenes
# Experimental: This experiment began with growing and harvesting of five strains of S. pyogenes, including M14 Lowe, YL3, M24 and T2/MR. The strains were grown in BHI broth in a 37 degree incubator overnight. The cultures were grown under static conditions. The cells were then harvested by washing twice with phosphate buffer (pH=7). Treatment of the cells with polyphenol oxidase and asparaginase began with finding the optical density of the stock solution of harvested cells. This was done using a spectrophotometer. Each strain was treated with two concentrations of polyphenol oxidase (100 μg/OD and 300 μg/OD) and one concentration of asparaginase (300 μg/OD). The treatment of the cells with polyphenol oxidase took place in the 37 degree incubator for 1.5 hours. The cells were then washed twice with phosphate buffer (pH 7). At this time, a coaggregation was made and allowed to set at static conditions for two hours. Slides were then made of each coaggregation.
# The treatment of the cells with asparaginase also took place in the 37 degree incubator for three hours. Before treatment, the cells were washed twice with phosphate buffer of pH=8. After treatment, they were washed twice with phosphate buffer of pH=7. Coaggregations and slides were then made as for polyphenol oxidase.
# The buccal cells were harvested from the inner cheeks using cotton swabs. […]
molecule,measurement,setting,value
B1,Absorbance (fibronectin),"S. aureus; S. aureus Cowan, untreated 0.33",0.18
same,Absorbance (fibronectin),"S. aureus; S. aureus Wood, untreated 0.42",0.35
same,Absorbance (fibronectin),"S. pyogenes [1]; S. pyogenes M4, untreated 0.32",0.15
same,Absorbance (fibronectin),"S. pyogenes [1]; S. pyogenes M24, untreated 0.33",0.21
same,binding by the glucosyltransferase to high molecular weight dextrans,[2],reduced binding
same,activity gel (hydrolysis of sucrose following renaturation of an SDS-PAGE gel),[2]; not shown,loss of activity
same,"glucan binding, enhanced chemiluminescence gel",[2]; not shown,loss of glucan binding
same,Percent Inhibition,"S. pyogenes [3]; Strain M4, asparaginase 100 U/ml",62%
same,"# S. pyogenes buccal cell, Asparaginase (100 U/ml)","S. pyogenes [3]; Strain M4, asparaginase 100 U/ml, untreated 183",69
same,Percent Inhibition,"S. pyogenes [3]; Strain M12 AC, asparaginase 100 U/ml",53%
same,"# S. pyogenes buccal cell, Asparaginase (100 U/ml)","S. pyogenes [3]; Strain M12 AC, asparaginase 100 U/ml, untreated 191",89
same,Percent Inhibition,"S. pyogenes [3]; Strain M14, asparaginase 100 U/ml",43%
same,"# S. pyogenes buccal cell, Asparaginase (100 U/ml)","S. pyogenes [3]; Strain M14, asparaginase 100 U/ml, untreated 183",105
same,Percent Inhibition,"S. pyogenes [3]; Strain M14, asparaginase, third line of the strain (line of polyphenol oxidase 300), own concentration not given",47%
same,"# S. pyogenes buccal cell, Asparaginase (100 U/ml)","S. pyogenes [3]; Strain M14, asparaginase, third line of the strain (line of polyphenol oxidase 300), own concentration not given, untreated 183",77
same,Percent Inhibition,"S. pyogenes [3]; Strain M15 Lowe, asparaginase 100 U/ml",23%
same,"# S. pyogenes buccal cell, Asparaginase (100 U/ml)","S. pyogenes [3]; Strain M15 Lowe, asparaginase 100 U/ml, untreated 120",93
same,Percent Inhibition,"S. pyogenes [3]; Strain M24, asparaginase 100 U/ml",61%
same,"# S. pyogenes buccal cell, Asparaginase (100 U/ml)","S. pyogenes [3]; Strain M24, asparaginase 100 U/ml, untreated 142",55
same,Percent Inhibition,"S. pyogenes [3]; Strain M24 VAN, asparaginase 100 U/ml",48%
same,"# S. pyogenes buccal cell, Asparaginase (100 U/ml)","S. pyogenes [3]; Strain M24 VAN, asparaginase 100 U/ml, untreated 131",68
same,Percent Inhibition,"S. pyogenes [3]; Strain M+, asparaginase 100 U/ml",64%
same,"# S. pyogenes buccal cell, Asparaginase (100 U/ml)","S. pyogenes [3]; Strain M+, asparaginase 100 U/ml, untreated 148",53
same,Hemagglutination,P. gingivalis; dilution 1/2,−
same,Hemagglutination,P. gingivalis; dilution 1/8,−
same,Hemagglutination,P. gingivalis; dilution 1/16,−
same,Hemagglutination,P. gingivalis; dilution 1/32,−
same,Hemagglutination,P. gingivalis; dilution 1/64,−
same,Hemagglutination,P. gingivalis; dilution 1/128,−
same,Hemagglutination,P. gingivalis; dilution 1/256,−
same,Hemagglutination,P. gingivalis; dilution 1/512,−
same,binding of bacteria to buccal cells,"S. pyogenes [4]; asparaginase 300 μg/OD, three hours",reduced binding
same,reduction in adhesion compared with polyphenol oxidase,S. pyogenes [4]; equivalent amount,greater reduction in adhesion than an equivalent amount of polyphenol oxidase
